Experimental findings from patent publication US20250346630A1, “Engineering Peptides Using Peptide Epitope Linker Evolution” (AGENCY FOR SCIENCE, TECHNOLOGY AND RESEARCH, priority 2022, published 2025) are described below.

Changes are numbered by the printed parent chain. In names and notes the source's numbering stands.

Test [1] has as its target T1, eIF4E cap-binding site (Homo sapiens, UniProt P06730).
T1 construct: pET11d expression plasmid containing the full-length eIF4E clone; made in house; host or cells: E. coli Rosetta pLysS
Description: m^7GTP^FAM competitive fluorescence anisotropy assay. Conditions: read-out: Competitive Anisotropy (kd, nM) m^7GTP^FAM, non-reducing conditions, 1:1 binding model, triplicate, Kds > 20,000 denoted non-binders.

Test [2] has as its target T2, eIF4E eIF4G interaction site (eIF4E:4G interface) (Homo sapiens, UniProt P06730).
T2 construct: pET11d expression plasmid containing the full-length eIF4E clone; made in house; host or cells: E. coli Rosetta pLysS
Description: eIF4G^FAM tracer peptide competitive fluorescence anisotropy assay. Conditions: non-reducing conditions, 1:1 binding model, triplicate, Kds > 20,000 denoted non-binders, read-out: Competitive Anisotropy (kd, nM) eIF4AG^FAM.

Test [3] concerns the target T3, eIF4E (Homo sapiens, UniProt P06730).
T3 construct: pET11d expression plasmid containing the full-length eIF4E clone; made in house; host or cells: E. coli Rosetta pLysS
Description: Direct fluorescence anisotropy titration of eIF4E against labelled tracers. Conditions: 50 nM tracer, 1:1 binding model.

In test [4] the target is T4, PCNA (Homo sapiens, UniProt P12004).
T4 construct: endogenous in cells; host or cells: HEK293
In words: Anti-FLAG immunoprecipitation pull down with PCNA. The class given is cell-based. Conditions: HEK293 cells. The protocol:
Twenty-four hours prior to transfection or drugging, cells were seeded at a cell density of 1000.000 (HEK293) cells per well of a six-well plate (ThermoFisher Scientific). Transfections were performed using Lipofectamine 3000 (ThermoFisher Scientific) with either 2 μg or the indicated amount of plasmid vectors per well according to the manufacturer's instructions. After a 48-hour incubation period, the cell media was then removed and the cells washed with PBS saline. Cells were directly lysed in the wells with 300 μl of lysis buffer containing 20 mM Hepes pH 7.4, 100 mM NaCl, 5 mM MgCl2, 0.5% NP-40, 1 mM DTT, with protease (Roche) and phosphatase (Sigma-Aldrich) inhibitor cocktail sets added as outlined by the manufacturer's protocols. […] Beads were then washed four times with lysis buffer containing no protease or phosphatase inhibitors. This was then followed by the addition of Laemlee buffer (2×) and the beads boiled for 5 min at 95° C. Samples were centrifuged and the supernatant removed for western blot analysis.
Confluent HEK293FT cells were used to generate lentivirus for infection of target cells. Packaging cells were transfected using calcium phosphate transfection as described below. […]
Samples were resolved on midi or mini Tris-Glycine 4-20% gradient gels (Bio-Rad) according to the manufacturer's protocol. […] B-actin levels were measured to ensure equal loading.

For test [5], the target named is T5, LgBiT-eIF4E:SmBiT-VH-DIF^CAP-01 interaction (eIF4E cap-binding site) (Homo sapiens, UniProt P06730).
T5 construct: expressed in transfected cells; host or cells: HEK293
In words: NanoBIT^CAP complementation assay in HEK293 cells. The class given is cell-based. Conditions: HEK293 cells permeabilized with sub-CMC digitonin; read-out: IC50 for disruption of LgBiT-eIF4E with SmBiT-VH-DIF^CAP-01 interaction.

Test [6] deals with T6, GST-tagged eIF4E (UniProt P06730 1-217).
T6 construct: also called GST-eIF4E; not shown: glutathione S-transferase tag of pGEX-6P1
Description: GST pull-down on glutathione beads with GST-eIF4E, Coomassie stained SDS-PAGE.

The target of test [7] is T7, full-length human eIF4E (human, UniProt P06730 2-217).
T7 construct: mature; Used here for the purified full-length protein (anisotropy, ITC, crystals) and for endogenous eIF4E of HEK293 cells in pull-downs; also called cellular eIF4E
Description: anti-FLAG immunoprecipitation from transfected HEK293 cells, western blot.

The target in test [8] is T8, LgBiT-eIF4E (UniProt P06730 1-217).
T8 construct: Expressed in HEK293 cells; also called LgBiT fused eIF4E; not shown: LgBiT (18-kDa NanoLuc fragment, Promega NanoBit)
In words: NanoBit split-luciferase complementation in co-transfected HEK293 cells [CONT.) B].

Test [9] concerns the target T7, full-length human eIF4E. In words: competitive fluorescence anisotropy, displacement of m7GTP^FAM from eIF4E.
Test [10] concerns the target T9, proliferating cell nuclear antigen (PCNA) (human, UniProt P12004 1-261).
T9 construct: Used here for the purified protein (anisotropy) and for endogenous PCNA of HEK293 and A375 cells in anti-FLAG pull-downs
In words: anti-FLAG immunoprecipitation from transfected HEK293 cells, western blot.

As to m^7GTP^BIOTIN, the Kd in [1] was 34.7 ± 4 nM; in [2] it was over 20000 nM.
m^7GTP^5-FAM [m^7GTP^FAM] displayed a Kd in [3] of 149 nM.
In the case of YVRPRLPHMSQFES [scrambled], in test [4], the “anti-FLAG pull down in complex with PCNA” value is reported as “do not”.
Take `Cn1c[n+]([C@@H]2O[C@H](COP(=O)(O)OP(=O)([O-])O)[C@@H](O)[C@H]2O)c2nc(N)[nH]c(=O)c21` [m^7GDP]: the IC50 in [5] amounted to 34500 nM. Besides, the figures for the Kd in [1] and in [2] were 201 ± 25.2 nM and over 20000 nM, respectively.

B1: VH-1C5^Scrambled (designed binder)
VH domain, His-tagged, purified: MSEVQLVESGGGLVQPGGSLRLSSAISGFSISSTSIDWVRQAPGKGLEWVARISPSSGSTSYADSVKGRFTISADTSKNTVYLQMNSLRAEDTAVYYTGRGSVLSVAFKPSVDSFSSFYNTNDYRGQGTLVTVSSGAA
notes: CDR3 loop of VH-1C5 scrambled; also called scrambled VH domain (negative control)
In the case of B1, the binding result in [6] is on record as “no binding”.

B2: FLAG-tagged VH-DIF^CAP-01 MA (M104A) (expressed in HEK293 cells) (designed binder)
VH: MSEVQLVESGGGLVQPGGSLRLSSAISGFSISSTSIDWVRQAPGKGLEWVARISPSSGSTSYADSVKGRFTISADTSKNTVYLQMNSLRAEDTAVYYTGRPLPEAGFFTNIPAMVDYRGQGTLVTVSSGAA
notes: also called VH-DIF^CAP-01 mutant (M104A); VH-DIF^CAP-Cntrl; not shown: C-terminal 3x FLAG tag of the pCDNA3.1 vector
On to B2, for which the binding result in test [7] was “no binding”.

B3: SmBiT-VH-DIF^CAP-01 M104A (designed binder)
VH: B2 VH
notes: also called VH-DIF^CAP-01 MA fused to smBIT; not shown: SmBiT (11-amino-acid NanoLuc fragment)
For the molecule B3, in [8], the binding result was “no binding”.

B4: SmBiT-VH-DIF^CAP-01 E103A (designed binder)
VH: B2 VH with E104A, A105M
notes: also called VH-DIF^CAP-01 EA fused to smBIT; not shown: SmBiT (11-amino-acid NanoLuc fragment)
Regarding B4, the binding result in [8] was “no binding”.

B5: VH-DiF^CAP-01^Cntrl (purified, His-tagged) (designed binder)
VH: B2 VH
notes: also called VH-DIF^CAP-01 MA (M104A); not shown: C-terminal six-histidine tag from pET-22b(+)
Turning to B5, the binding result in [9] was “no binding”.

B6: VH-S4 (expressed in HEK293 cells) (designed binder)
VH: MSEVQLVESGGGLVQPGGSLRLSSAISGFSISSTSIDWVRQAPGKGLEWVARISPSSGSTSYADSVKGRFTISADTSKNTVYLQMNSLRAEDTAVYYTGRVAKALNSRSPSFVVNTYSSIGFDYRGQGTLVTVSSGAA
On to B6, for which the binding result in [7] is listed as “binds”.

B7: negative control M4 (FLAG-tagged, expressed in HEK293 cells) (designed binder)
VH: B6 VH with R108S, I120F
notes: not shown: C-terminal 3x FLAG tag of the pCDNA3.1 vector
For B7, in test [4], the “anti-FLAG pull down in complex with PCNA” value is “do not”. The binding result in test [10] was “no binding”.
